Results from paper PMC11342371.

Key:
[1] = target: human C-reactive protein (human) (UniProt P02741); assay: mass photometry; in ammonium acetate; decamer to pentamers
[2] = target: human C-reactive protein (human) (UniProt P02741); assay: native MS; 0.5, 1 and 7 uM, ammonium acetate; decamer to pentamers
[3] = target: human C-reactive protein (human) (UniProt P02741); assay: mass photometry; nanohole-PEG surface (10 ug cm^-2 of 100 nm SNPs), PBS pH 7.2, across different analyte concentrations (500 nM shown), at equilibrium; decamer to pentamers, KD = [monomer]^2/[dimer] with the pentamer as the monomer

human C-reactive protein (from UniProt P02741 19-224) (natural protein)
Kd [1]: 3.4 µM | Kd [2]: 2.46 µM | Kd [3]: 2.6 µM | stoichiometry N [3]: 10
